From paper PMC3314968

Experiments:
K63-linked diubiquitin = K63-linked diubiquitin (UniProt P0CG48); assay: ITC; conditions: domain or fragment
K48-linked diubiquitin = K48-linked diubiquitin (UniProt P0CG48); assay: ITC; conditions: domain or fragment

human UBAP1 SOUBA domain (389-502), wild-type, sequence (Q9NZ09 389-502): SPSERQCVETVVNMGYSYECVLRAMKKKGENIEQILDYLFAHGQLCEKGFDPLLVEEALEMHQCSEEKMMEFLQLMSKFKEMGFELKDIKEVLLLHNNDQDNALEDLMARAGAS

human UBAP1 SOUBA domain (389-502), wild-type (from UniProt Q9NZ09 389-502)
Kd (K63-linked diubiquitin): 41 µM
Kd (K48-linked diubiquitin): 65 µM
